Here are results for four molecules from patent US20240392037A1 (UNIVERSITY OF PITTSBURGH OF THE COMMONWEALTH SYSTEM OF …, published 2024).

For experiment [1], the target named is T1, recombinant human myeloperoxidase protein (human, UniProt P05164 49-745, limits assumed).
T1 construct: Specificity control, coated at 50 ng/well in ELISA; also called rhMPO
T1 sequence (looked up): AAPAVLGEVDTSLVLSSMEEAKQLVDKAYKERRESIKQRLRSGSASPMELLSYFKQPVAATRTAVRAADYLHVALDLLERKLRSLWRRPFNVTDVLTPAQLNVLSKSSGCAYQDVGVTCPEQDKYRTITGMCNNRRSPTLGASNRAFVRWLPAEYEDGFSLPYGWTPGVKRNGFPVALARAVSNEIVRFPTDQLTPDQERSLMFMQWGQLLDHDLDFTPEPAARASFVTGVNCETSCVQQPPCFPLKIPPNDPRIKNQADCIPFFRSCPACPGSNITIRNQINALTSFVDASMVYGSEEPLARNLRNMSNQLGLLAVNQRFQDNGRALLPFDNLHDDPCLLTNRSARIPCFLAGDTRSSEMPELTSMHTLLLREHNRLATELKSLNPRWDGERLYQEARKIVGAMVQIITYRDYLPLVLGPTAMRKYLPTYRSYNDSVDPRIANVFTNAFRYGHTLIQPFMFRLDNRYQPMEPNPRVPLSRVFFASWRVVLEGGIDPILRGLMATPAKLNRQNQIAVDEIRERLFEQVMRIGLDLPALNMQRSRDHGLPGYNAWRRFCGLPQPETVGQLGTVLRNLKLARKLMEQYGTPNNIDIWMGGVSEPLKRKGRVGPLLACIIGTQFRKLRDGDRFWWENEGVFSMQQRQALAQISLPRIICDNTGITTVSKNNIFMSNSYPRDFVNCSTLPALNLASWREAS
The experiment in a line: ELISA, rhMPO coated at 50 ng/well. As to the method:
(§1) FIG. 12. Specificity of VH/VH-Fc and Fab/IgG1 with recombinant human NE. (A and B) Binding of Fab 1C10 (A) and VH 1D1.43 (B) to rhNE, rhMPO, and PR3 measured by ELISA. (C and D) Binding of IgG1 1C10 (C) and VH-Fc 1D1.43 (D) to rhNE, rhMPO, BSA, and PR3 measured by ELISA. rhNE, rhMPO, BSA, and PR3 were coated in 96-well microplates at 50 ng/well. Experiments were performed in duplicate. Values were reported as the mean±SD.
(§2) The NE polypeptide was coated in 96-well microplates at 50 ng/well in PBS at 4° C. over-night and blocked with 5% milk in PBS for 2 hours at room temperature. For the soluble Fab/VH binding assay, the 3-fold serially diluted Fab/VH were added and incubated for 1 hour at 37° C. and further incubated with anti-FLAG M2-peroxidase (HRP) antibody (A8592, Sigma-Aldrich) for another 1 hour. For the IgG₁ binding assay, HRP conjugated goat anti-human IgG₁ Fc (Sigma-Aldrich) was used for detection. Finally, the reaction was developed by 3,3′,5,5′-tetramethylbenzidine (TMB, Sigma-Aldrich) and stopped by TMB stop buffer (ScyTek laboratories). Absorbance was recorded at 450 nm. The experiment was performed in duplicate.

For experiment [2], the target named is T2, human neutrophil elastase (NE) polypeptide (human, UniProt P08246 28-267, limits assumed).
T2 construct: also called hNE; rhNE
T2 sequence: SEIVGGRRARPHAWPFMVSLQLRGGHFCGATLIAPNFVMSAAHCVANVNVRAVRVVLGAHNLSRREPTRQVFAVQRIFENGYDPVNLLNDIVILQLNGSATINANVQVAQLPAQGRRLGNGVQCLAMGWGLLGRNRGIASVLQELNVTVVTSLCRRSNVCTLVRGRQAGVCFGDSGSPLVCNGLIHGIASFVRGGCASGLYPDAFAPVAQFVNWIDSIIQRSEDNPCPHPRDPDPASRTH
The experiment in a line: ELISA, NE coated at 50 ng/well, anti-human IgG1 Fc-HRP detection. Here is the method:
as §2
(An ELISA detects its analyte on a solid surface through an enzyme-linked reagent.)

For experiment [3], the target named is T3, Proteinase 3 (UniProt P24158 28-248, limits assumed).
T3 construct: Specificity control, coated at 50 ng/well in ELISA; also called PR3
T3 sequence (looked up): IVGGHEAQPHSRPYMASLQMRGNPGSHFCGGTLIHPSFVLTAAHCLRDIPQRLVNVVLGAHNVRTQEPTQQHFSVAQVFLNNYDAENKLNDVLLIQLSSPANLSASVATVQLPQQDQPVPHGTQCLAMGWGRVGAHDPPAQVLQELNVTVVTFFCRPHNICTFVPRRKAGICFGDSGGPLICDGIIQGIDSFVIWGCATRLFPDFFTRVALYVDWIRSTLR
The experiment in a line: ELISA, PR3 coated at 50 ng/well. As to the method:
as §1, §2

Experiment [4] deals with T2, human neutrophil elastase (NE) …. The experiment in a line: ELISA, NE coated at 50 ng/well. As to the method: as §1, §2
For experiment [5] the target is unchanged. Description: cell-based or functional assay.
The target of experiment [6] is T4, BSA (UniProt P02769 25-607). Description: ELISA, BSA coated at 50 ng/well. As to the method: as §1, §2
Experiment [7] has as its target T2, human neutrophil elastase (NE) …. Description: ELISA, NE coated at 50 ng/well, anti-FLAG-HRP detection. As to the method:
as §2

Experiment [8] has as its target T1, recombinant human myeloperoxidase …. The experiment in a line: ELISA, rhMPO coated at 50 ng/well, anti-FLAG-HRP detection.
For experiment [9], the target named is T3, Proteinase 3. Description: ELISA, PR3 coated at 50 ng/well, anti-FLAG-HRP detection.
Experiment [10] has as its target T2, human neutrophil elastase (NE) …. The experiment in a line: ELISA, NE coated at 50 ng/well, anti-FLAG-HRP detection. Here is the method: as §1, §2
This is another data set of the same source.

Experiment [11] addresses T3, Proteinase 3. The experiment in a line: ELISA, PR3 coated at 50 ng/well, anti-FLAG-HRP detection. Here is the method:
as §1, §2
The source holds these as a separate data set.

Experiment [12] deals with T1, recombinant human myeloperoxidase …. The experiment in a line: ELISA, rhMPO coated at 50 ng/well, anti-FLAG-HRP detection. As to the method:
as §1, §2
The source holds these as a separate data set.

The target of experiment [13] is T2, human neutrophil elastase (NE) …. Description: BLItz biolayer interferometry, NE-Biotin on streptavidin biosensor. Here is the method: The affinity and avidity of anti-hNE binders were detected by biolayer interferometry BLItz (ForteBio, Menlo Park, CA). Briefly, Dulbecco's PBS (DPBS) was used to establish baseline for 30 seconds, and streptavidin biosensor (ForteBio) was coated with 16.7 μg/mL recombinant NE-Biotin for 2 minutes. […] Antigen coated biosensors with PBS served as reference controls. The dissociation was monitored in DPBS for 4 minutes.

Experiment [14] deals with T4, BSA. The experiment in a line: ELISA, BSA coated at 50 ng/well, HRP anti-human IgG1 Fc detection. Here is the method:
as §1, §2

Experiment [15] deals with T3, Proteinase 3. Description: ELISA, PR3 coated at 50 ng/well, HRP anti-human IgG1 Fc detection.
Experiment [16] deals with T1, recombinant human myeloperoxidase …. The experiment in a line: ELISA, rhMPO coated at 50 ng/well, HRP anti-human IgG1 Fc detection.

T4 sequence (P02769 25-607 limits assumed): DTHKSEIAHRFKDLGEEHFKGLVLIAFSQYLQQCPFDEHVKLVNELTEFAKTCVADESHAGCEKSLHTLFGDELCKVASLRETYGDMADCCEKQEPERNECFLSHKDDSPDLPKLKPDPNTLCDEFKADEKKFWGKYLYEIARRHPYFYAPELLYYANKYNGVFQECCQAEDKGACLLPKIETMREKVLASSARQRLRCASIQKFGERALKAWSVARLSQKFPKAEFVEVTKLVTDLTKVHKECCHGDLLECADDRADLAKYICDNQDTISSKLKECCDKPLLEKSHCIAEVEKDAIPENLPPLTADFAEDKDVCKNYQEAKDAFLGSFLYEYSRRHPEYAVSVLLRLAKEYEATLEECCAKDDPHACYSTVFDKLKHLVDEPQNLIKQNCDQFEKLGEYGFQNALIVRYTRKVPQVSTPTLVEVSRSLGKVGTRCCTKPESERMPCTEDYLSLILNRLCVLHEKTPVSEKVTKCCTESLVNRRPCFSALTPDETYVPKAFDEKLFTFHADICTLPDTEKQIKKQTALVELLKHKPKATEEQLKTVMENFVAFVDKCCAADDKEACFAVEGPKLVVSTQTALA

B1: VH-Fc 1D1.43 (Fc fusion)
chain: EVQLVESGGGVVQPGRSLRLSCAASGFTFSNYAMHWVRQAPGKGLEWVAVISYDGSNKYYADSVKGRFTISRDDSTNTLYLQMNNLRAEDTAVYYCAKDLPWEWELDYWGQGTLVTVSS
notes: VH 1D1.43 converted to a bivalent antibody by fusion to human IgG1 Fc; also called VH-Fc ID1.43; not shown: human IgG1 Fc
Regarding B1, the binding result (in [1]; with Proteinase 3 [3]; with BSA [6]) was “no binding (tested: about 1,000 nM)” in each case. Also, a half-maximal response in [2] (EC50) required 0.66 nM. For the same molecule, the “EC50 (read off the curve)” value in experiment [4] is approximately 0.7 nM. In experiment [5], the “IC50 of inhibition of neutrophil elastase enzyme activity; fold change against the VH form (VH 1D1.43)” value was 10 fold.

B2: VH 1D1.43 (other)
VH: EVQLVESGGGVVQPGRSLRLSCAASGFTFSNYAMHWVRQAPGKGLEWVAVISYDGSNKYYADSVKGRFTISRDDSTNTLYLQMNNLRAEDTAVYYCAKDLPWEWELDYWGQGTLVTVSS
notes: Expressed in E. coli, purified on Ni-NTA and detected with anti-FLAG antibody; also called Clone #2; #2 (VH)
For the molecule B2, the EC50 in experiment [7] was found to be 4.3 nM. For the same molecule, the binding result (in experiment [8]; with Proteinase 3 [9]) was “no binding (tested: about 30,000 nM)” in each case. The “EC50 (read off the curve)” value in experiment [10] was approximately 10 nM.

B3: Fab 1C10 (Fab, V domains shown)
VH: QVQLVESGGGLVKPGGSLRLSCAASGFTFSDYYMSWIRQAPGKGLEWVSYISSSGSTIYYADSVKGRFTISRDNAKNSLYLQMNSLRAEDTAVYYCARVGGDFWSGFLMDVWGQGTTVTVSS
VL: DIQMTQSPSSLSASVGDRVTITCRASQSISSYLNWYQQKPGKAPKLLIYAASSLQSGVPSRFSGSGSGTDFTLTISSLQPEDVAVYYCMQALQTPLTFGQGTKLEIKR
notes: Human Fab from a phage library; also called Clone #1; #1 (Fab)
As to B3, the binding result (in the experiment with Proteinase 3 [11]; in [12]) was “no binding (tested: about 7,000 nM)” in each case. The molecule further yielded a concentration giving a half-maximal response (EC50) in experiment [7] of 16.3 nM. For the same molecule, the Kd in experiment [13] stood at 8.5 nM. Further, in [10], the half-maximal effective concentration (EC50 (read off the curve)) is approximately 3 nM. The “IC50 of inhibition of neutrophil elastase enzyme activity” value in experiment [5] is approximately 5000 nM.

B4: IgG1 1C10 (antibody, V domains shown)
VH: QVQLVESGGGLVKPGGSLRLSCAASGFTFSDYYMSWIRQAPGKGLEWVSYISSSGSTIYYADSVKGRFTISRDNAKNSLYLQMNSLRAEDTAVYYCARVGGDFWSGFLMDVWGQGTTVTVSS
VL: DIQMTQSPSSLSASVGDRVTITCRASQSISSYLNWYQQKPGKAPKLLIYAASSLQSGVPSRFSGSGSGTDFTLTISSLQPEDVAVYYCMQALQTPLTFGQGTKLEIKR
notes: Fab 1C10 converted to a bivalent human IgG1 (heavy and light chains re-cloned into the pcDNA-IgG1 vector, expressed in Expi293 cells); also called IgG 1C10; 1C10 IgG1
Take B4: the binding result (with BSA [14]; with Proteinase 3 [15]; in [16]) was “no binding (tested: about 200 nM)” in each case. This molecule also showed an EC50 in experiment [2] of 0.4 nM. In experiment [13], this molecule displayed a Kd of 0.14 nM. The “IC50 of inhibition of neutrophil elastase enzyme activity” value in [5] turned out to be 1800 nM.

As usually defined, the EC50 is the concentration that produces a half-maximal response. What is called EC50 (read off the curve) is the concentration at which the effect is half-maximal. High values mean lower potency in that assay, low ones higher potency in that assay. The Kd is the free concentration of one partner at which half of the binding sites on the other are occupied at equilibrium, for simple one-to-one binding. A higher Kd goes with a looser complex.
